# Numbering of substitutions follows the chain as printed. Names may count otherwise.
# T1: human IL-33 (R&D Systems, #3625-IL-010/CF) (human, UniProt O95760 112-270)
# T1 sequence (looked up): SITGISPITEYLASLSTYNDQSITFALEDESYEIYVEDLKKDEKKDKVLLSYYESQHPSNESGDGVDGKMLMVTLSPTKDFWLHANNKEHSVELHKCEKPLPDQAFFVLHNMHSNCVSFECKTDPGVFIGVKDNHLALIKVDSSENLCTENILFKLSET
# T2: cynomolgus monkey IL-33 expressed with a C-terminal hexahistidine tag (cynomolgus monkey)
# T2 chain: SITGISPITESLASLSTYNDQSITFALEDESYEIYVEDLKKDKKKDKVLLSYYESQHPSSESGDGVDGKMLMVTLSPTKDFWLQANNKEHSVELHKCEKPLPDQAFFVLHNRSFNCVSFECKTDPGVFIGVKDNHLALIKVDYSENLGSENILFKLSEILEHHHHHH
# B1: H4H9662P (antibody, V domains shown)
# VH: EVQLVESGGGLVQPGGSLRLSCAASGFTFSSYALTWVRQAPGKGLEWVSFISGSGGRPFYADSVKGRFTISRDNSKNMLYLQMNSLRAEDTAIYYCAKSLYTTSWYGGFDSWGQGTLVTVSS
# VL: DIQMTQSPSSVSASVGDRVTITCRASQGVVSWLAWYQQKPGKAPKLLIYAASSLQSGVPSRFSGSGSGTDFTLTISSLQPEDFATYYCQQSNSFPFTLGPGTKVDIK
# notes: Human IgG4 Fc (H4H)
# B2: H4H9664P (antibody, human IgG4, V domains shown)
# VH: QVQLVESGGGVVQPGRSLRLSCAASGFTFSSYGLHWVRQSPGKGLEWVALISYDGSNKYYADSVKGRFTISRDNSKNTLYLQMNSLRPEDTAGYFCAKSLYTTSWYGGFDYWGQGTLVTVSS
# VL: B1 VL with V29I, V30R, K45N, S91A, F96P, L98F
# notes: Human IgG4 Fc (H4H)
# B3: H4H9667P (antibody, human IgG4, V domains shown)
# VH: EVQLVESGGGLVQPGGSLRLSCAASGFTFSTYSMHWVRQAPGKGLEYVSTINNNGDTTYYADSVKGRFTISRDNSKNTLYLQLGSLRPEDMAVYYCARQTYTSSWYGGFDSWGQGTLVTVSS
# VL: B1 VL with V29I, V30T, S53N, S76T, S91A, F94L, L98F
# notes: Human IgG4 Fc (H4H)
# B4: H4H9665P (antibody, human IgG4, V domains shown)
# VH: EVQLVESGGGLVQPGGSLRLSCAASGFTFSNYAMTWVRQAPGKGLEWVSTISGSGDNTYYADSVQGRFTISRGHSKNTLYLQMNSLRAEDTAVYYCAKPTYSRSWYGAFDFWGQGTMVTVSS
# VL: B1 VL with V29I, V30S, K45Q, S53R, S63W, S91A, S93N, L98F
# notes: Human IgG4 Fc (H4H)
# B5: H4H9663P (antibody, human IgG4, V domains shown)
# VH: QVQLVQSGAEVKKPGASVKVSCKASGYTFTGHYMYWMRQAPGQGLEWMGWINPNSGGTNYAQKFQDRVTMTRDTSISTAYMELSRLRSDDTAVYYCARGRYGSSWYGGFEYWGQGTLVTVSS
# VL: DIQMTQSPSSVSASVGDRVTITCRASQGITSWLAWYQQKPGKAPNLLIYAAASLQSGVPSRFSGSGSGTDFTLTISSLQPEDFTTYYCQQAYSLPLTFGGGTKVEIK
# notes: Human IgG4 Fc (H4H)
# Target: T1, human IL-33 (R&D Systems, …)
# Experiment: cell-based or functional assay
row,Binder,"IC50, inhibition of 10 pM hIL-33 activation of HEK293/hST2/NFkB-luciferase cells [M]"
1,B1,2e-11
2,B2,5e-11
3,B3,7.1e-11
4,B4,9e-11
5,B5,1.3e-10

# Target: T2, cynomolgus monkey IL-33 expressed with …
# Experiment: cell-based or functional assay
row,Binder,"IC50, inhibition of 5 pM MfIL-33-6His activation of HEK293/hST2/NFkB-luciferase cells [M]"
1,B1,1.5e-09
2,B2,2.6e-08
3,B3,1.2e-08
4,B4,6.6e-10
5,B5,2.7e-09

# Target: T1, human IL-33 (R&D Systems, …)
# Experiment: SPR 25C pH7.4, mAb captured
# Method: (§1) Equilibrium dissociation constants (KD values) for IL-33 binding to purified anti-IL-33 monoclonal antibodies were determined using a real-time surface plasmon resonance biosensor using a Biacore 4000 instrument. The Biacore sensor surface was first derivatized by amine coupling with either a polyclonal rabbit anti-mouse antibody (GE, # BR-1008-38) or with a monoclonal mouse anti-human Fc antibody (GE, # BR-1008-39) to capture anti-IL-33 monoclonal antibodies expressed with mouse or with human IgG4 constant regions, respectively. All Biacore binding studies were performed in 0.01M ADA pH 7.4, 0.15M NaCl, 3 mM EDTA, and 0.05% v/v Surfactant Tween-20 (ABS-ET running buffer). […] Association of either hIL-33 or MfIL-33-6His to the captured monoclonal antibody was monitored for 4 minutes and their dissociation in ABS-ET running buffer was monitored for 10 minutes. The effect of reduced pH on the binding of each anti-IL-33 antibody to either hIL-33 or MfIL-33-6His was studied using an in-line pH chase assay format in 0.01M ADA pH 6.0, 0.15M NaCl, 3 mM EDTA, and 0.05% v/v Surfactant Tween-20 (ABS-ET pH6 buffer). To achieve this, association of either hIL-33 or MfIL-33-6His to the captured monoclonal antibody was monitored for 4 minutes in ABS-ET running buffer. Following a 30 second dissociation of either hIL-33 or MfIL-33-6His in ABS-ET running buffer, ABS-ET pH6 buffer was injected for 3 minutes, and the analyte dissociation under the low-pH conditions was measured. All the binding kinetic experiments were performed at both 25° C. and 37° C. Kinetic association (kₐ) and dissociation (kd) constants were determined by fitting the real-time sensorgrams to a 1:1 binding model using Scrubber 2.0c curve fitting software. Binding dissociation equilibrium constants (KD) and dissociative half-lives (t½) were calculated from the kinetic rate constants as: […]
Binder,Kd [nM],koff [s⁻¹],kon [M⁻¹ s⁻¹],t½ [min]
B1,0.308,0.00025,811000,46
B2,0.757,0.000257,339000,45
B3,0.395,0.000252,637000,46
B4,0.533,0.000474,888000,24
B5,0.305,0.000414,1.36e+06,28

# Target: T2, cynomolgus monkey IL-33 expressed with …
# Experiment: SPR 25C pH7.4, mAb captured
# Method: as §1
Binder,Kd [nM],koff [s⁻¹],kon [M⁻¹ s⁻¹],t½ [min]
B1,1.25,0.000442,353000,26
B2,11.8,0.00165,140000,7
B3,2.89,0.000991,343000,12
B4,1.02,0.000566,557000,20
B5,1.06,0.000925,869000,12

# Target: T1, human IL-33 (R&D Systems, …)
# Experiment: SPR 37C pH7.4, mAb captured
# Method: as §1
Binder,Kd [nM],koff [s⁻¹],kon [M⁻¹ s⁻¹],t½ [min]
B1,0.443,0.00062,1.4e+06,19
B2,1.39,0.000721,519000,16
B3,0.618,0.000603,976000,19
B4,1.19,0.00144,1.21e+06,8
B5,0.677,0.00124,1.83e+06,9

# Target: T2, cynomolgus monkey IL-33 expressed with …
# Experiment: SPR 37C pH7.4, mAb captured
# Method: as §1
Binder,Kd [nM],koff [s⁻¹],kon [M⁻¹ s⁻¹],t½ [min]
B1,2.24,0.00158,707000,7
B2,16.2,0.00584,361000,2
B3,4.66,0.00317,681000,4
B4,1.91,0.0021,1.1e+06,5
B5,2.22,0.00361,1.62e+06,3.2

# Target: T1, human IL-33 (R&D Systems, …)
# Experiment: SPR 37C, pH6.0 chase, mAb captured
# Method: as §1
Binder,koff [s⁻¹],t½ [min],t½ Ratio (pH 7.4/pH 6.0)
B1,0.00383,3,6.2
B2,0.00279,4,3.9
B3,0.00244,5,4
B4,0.00965,1,6.7
B5,0.00462,3,3.7

# Target: T2, cynomolgus monkey IL-33 expressed with …
# Experiment: SPR 37C, pH6.0 chase, mAb captured
# Method: as §1
Binder,koff [s⁻¹],t½ [min],t½ Ratio (pH 7.4/pH 6.0)
B1,0.00168,7,1.1
B2,0.00193,6,0.3
B3,0.00268,4,0.8
B4,0.004,2.9,1.9
B5,0.00354,3.3,1

# Target: T2, cynomolgus monkey IL-33 expressed with …
# Experiment: BLI; mAb-1 on captured MfIL-33-6His
# Method: (§2) Binding competition between a panel of different anti-IL-33 monoclonal antibodies was determined using a real time, label-free bio-layer interferometry assay on an Octet® HTX biosensor (ForteBio, A Division of Pall Life Sciences). The experiment was performed at 25° C. using a buffer of 0.01M HEPES pH7.4, 0.15M NaCl, 3 mM EDTA, 0.05% v/v Surfactant Tween-20, and 0.1 mg/ml BSA (HBS-ET kinetics buffer) with the plate shaking at a speed of 1000 rpm. […] The antigen-captured biosensors were then saturated with a first anti-IL-33 monoclonal antibody (subsequently referred to as mAb-1) by immersion into wells containing 50 μg/mL solution of mAb-1 for 5 minutes. The biosensors were then dipped into wells containing a 50 μg/mL solution of a second anti-IL-33 monoclonal antibody (subsequently referred to as mAb-2) for 4 minutes. The biosensors were washed in HBS-ET kinetics buffer in between every step of the experiment. The real-time binding response was monitored during the experiment, and the maximum binding response for each binding step was recorded. The response of mAb-2 binding to MfIL-33-6His pre-complexed with mAb-1 was measured, and competitive/non-competitive behavior of different anti-IL-33 monoclonal antibodies with respect to each other was determined.
row,Binder,mAb-1 Binding (nm)
1,B1,0.56
2,B2,0.61
3,B3,0.5
4,B4,0.63
5,B5,0.54

# Target: T2, cynomolgus monkey IL-33 expressed with …
# Experiment: BLI; captured MfIL-33-6His, mAb-1 step with Buffer
# Method: as §2
row,Binder,mAb-2 Binding to the Pre-complex of mAb-1 & MfIL-33-6xHis [nm]
1,B1,0.26
2,B2,0.31
3,B3,0.3
4,B4,0.33
5,B5,0.31

# Reference: patent US20160362487A1 (Regeneron, published 2016)
